Assay results published in patent US20120208232, “Cell-Free Synthesis of Active Reprogramming Transcription Factors” (published 2012).

How the values were obtained:
R9-Oct3/4 = R9-Oct3/4 (Homo sapiens, UniProt Q01860 Q01860:1-360); assay: NoShift plate assay, 0.5 uM DNA; reduced by unlabelled consensus competitor; details: protein: synthetic; tags: N-terminal CAT9-StrepTagII-Xa-R9-His6-G4S fusion, E. coli cell-free synthesis; label: biotin
Protocol: (§1) Assessment of the DNA Binding Activities of the Fusion Reprogramming Factors. The DNA-binding activities of the R9-Nanog, R9-Oct3/4, and R9-Sox2 fusion proteins were assayed by colorimetry utilizing the NoShift Transcription Factor Assay Kit (Novagen) according to the manufacturer's instructions. To assess sequence-specific binding activity, 1-2 μg of the R9-Nanog fusion protein, 2-10 μg of the R9-Oct3/4 fusion protein or 1-4 μg of the R9-Sox2 fusion protein were each incubated in […] with 0.5 μM of their respective biotinylated consensus dsDNA binding targets. […] Non-biotinylated competitor consensus dsDNA and scrambled dsDNA used to assess competitive binding were added at […]. As a positive control, recombinant human (rh) Nanog (Abcam) and rhSox (Peprotech) were used. HRP-conjugated anti-mouse immunoglobulin G was used as a secondary antibody to recognize the anti-Nanog (Abcam), anti-Oct3/4 (R&D Systems), and anti-Sox2 (R&D Systems) mouse monoclonal antibodies. All assays were performed in duplicate. Binding activity was measured via colorimetric absorbance at 450 nm on a Tecan multiwell spectrophotometer using 3,3,5,5-tetramethylbenzidine as the substrate.
(§2) The NoShift Assay (Novagen) was used to verify the DNA binding activities of R9-Nanog, R9-Sox2, and R9-Oct3/4. […]

rhSox2 = rhSox2 (Homo sapiens, UniProt P48431 P48431:1-317); assay: NoShift plate assay, positive control; details: tags: Peprotech; label: biotin
Chain of rhSox2 (P48431 whole entry, one chain of several): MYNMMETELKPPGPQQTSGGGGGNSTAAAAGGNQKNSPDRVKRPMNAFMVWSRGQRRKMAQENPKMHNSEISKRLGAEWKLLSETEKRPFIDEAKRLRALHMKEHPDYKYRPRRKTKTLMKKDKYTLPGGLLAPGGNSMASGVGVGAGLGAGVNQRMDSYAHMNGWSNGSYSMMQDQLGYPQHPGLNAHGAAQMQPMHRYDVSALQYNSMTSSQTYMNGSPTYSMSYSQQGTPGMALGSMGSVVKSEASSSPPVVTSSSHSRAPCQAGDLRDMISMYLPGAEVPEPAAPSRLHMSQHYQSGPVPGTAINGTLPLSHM
Protocol: as §1, §2

R9-Sox2 = R9-Sox2 (Homo sapiens, UniProt P48431 P48431:1-317); assay: NoShift plate assay, 0.5 uM DNA; reduced by unlabelled consensus competitor; details: protein: synthetic; tags: N-terminal CAT9-StrepTagII-Xa-R9-His6-G4S fusion, E. coli cell-free synthesis; label: biotin
Chain of R9-Sox2 (P48431 whole entry, the tested form may be a part, one chain of several): as the sequence (P48431 whole entry, one chain of several) above
Protocol: as §1, §2

rhNanog = rhNanog (Homo sapiens, UniProt Q9H9S0 Q9H9S0:1-305); assay: NoShift plate assay, positive control; details: tags: Abcam; label: biotin
Chain of rhNanog (Q9H9S0 whole entry, one chain of several): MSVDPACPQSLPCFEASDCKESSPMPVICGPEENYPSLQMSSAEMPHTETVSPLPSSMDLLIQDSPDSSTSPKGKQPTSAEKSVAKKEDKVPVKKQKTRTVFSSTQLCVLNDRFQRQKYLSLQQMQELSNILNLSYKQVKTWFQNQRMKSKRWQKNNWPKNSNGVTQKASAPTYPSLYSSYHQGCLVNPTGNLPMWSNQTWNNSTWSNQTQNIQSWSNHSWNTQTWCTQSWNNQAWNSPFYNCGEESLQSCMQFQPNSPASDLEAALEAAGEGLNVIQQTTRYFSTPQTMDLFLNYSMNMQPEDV
Protocol: as §1, §2

Chain of R9-Oct3/4 (Q01860 whole entry, the tested form may be a part, one chain of several): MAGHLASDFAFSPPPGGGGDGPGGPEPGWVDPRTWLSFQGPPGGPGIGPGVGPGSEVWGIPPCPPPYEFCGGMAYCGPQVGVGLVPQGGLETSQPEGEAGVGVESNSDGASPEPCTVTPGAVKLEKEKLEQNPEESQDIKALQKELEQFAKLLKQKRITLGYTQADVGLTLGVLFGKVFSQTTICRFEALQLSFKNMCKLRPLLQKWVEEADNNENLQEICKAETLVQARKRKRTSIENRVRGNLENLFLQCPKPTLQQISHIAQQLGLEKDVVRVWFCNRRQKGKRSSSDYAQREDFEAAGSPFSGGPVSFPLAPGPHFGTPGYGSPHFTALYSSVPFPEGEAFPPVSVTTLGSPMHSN

B1: Oct3/4 consensus dsDNA (dsDNA)
DNA 1: GCAGAGAGATGCATGTGCCGT
DNA 2: ACGGCACATGCATCTCTCTGC
Q: Does B1 bind (R9-Oct3/4)?
A: binds

B2: Sox2 consensus dsDNA (dsDNA)
DNA 1: GCAGAGGACAAAGGTGCCGTG
DNA 2: CACGGCACCTTTGTCCTCTGC
Q: Does B2 bind (rhSox2)?
A: binds

Q: Does B2 bind (R9-Sox2)?
A: binds

B3: Nanog consensus dsDNA (dsDNA)
DNA 1: ACCTGTTAATGGGAGCGC
DNA 2: GCGCTCCCATTAACAGGT
Q: Does B3 bind (rhNanog)?
A: binds
